What was measured:
Test in all cases: pull-down
[1] = molecular target: GST-tagged HPV-18 E2 (18E2), immobilized (HPV-18, UniProt P06790 1-365)
[2] = molecular target: GST-tagged HPV-16 E2 (16E2), immobilized (HPV-16, UniProt P03120 1-365)
[3] = molecular target: T1, GST-tagged BPV-1 E2 (BE2), immobilized (bovine papillomavirus type 1 (BPV-1), UniProt P03122 1-410)
T1 sequence: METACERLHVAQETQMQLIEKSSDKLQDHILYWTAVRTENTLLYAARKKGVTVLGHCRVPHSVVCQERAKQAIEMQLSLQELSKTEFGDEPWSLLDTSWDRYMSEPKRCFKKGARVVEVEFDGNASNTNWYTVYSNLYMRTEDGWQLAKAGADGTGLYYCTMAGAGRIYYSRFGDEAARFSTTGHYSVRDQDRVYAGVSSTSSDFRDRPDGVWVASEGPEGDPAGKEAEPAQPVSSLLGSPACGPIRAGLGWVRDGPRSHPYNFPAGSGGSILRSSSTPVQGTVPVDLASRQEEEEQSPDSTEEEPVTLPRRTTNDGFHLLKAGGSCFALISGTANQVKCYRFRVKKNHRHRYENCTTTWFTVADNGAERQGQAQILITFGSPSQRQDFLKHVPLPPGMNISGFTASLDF

[4] = molecular target: GST-tagged HPV-11 E2 (11E2), immobilized (HPV-11, UniProt P04015 1-367)
[5] = molecular target: Sf9-PDID of BRD4 with S488 substituted to alanine (human, UniProt O60885 287-530, S488 to alanine)
[6] = molecular target: Sf9-PDID of BRD4 with S492 substituted to alanine (human, UniProt O60885 287-530, S492 to alanine)
[7] = molecular target: Sf9-PDID of BRD4 with S494 substituted to alanine (human, UniProt O60885 287-530, S494 to alanine)
[8] = molecular target: Sf9-PDID of BRD4 with S498 substituted to alanine (human, UniProt O60885 287-530, S498 to alanine)
[9] = molecular target: Sf9-PDID of BRD4 with S499 substituted to alanine (human, UniProt O60885 287-530, S499 to alanine)

Measured: binding result

GST-tagged HPV-11 E2 (11E2), immobilized, sequence (P04015 whole entry): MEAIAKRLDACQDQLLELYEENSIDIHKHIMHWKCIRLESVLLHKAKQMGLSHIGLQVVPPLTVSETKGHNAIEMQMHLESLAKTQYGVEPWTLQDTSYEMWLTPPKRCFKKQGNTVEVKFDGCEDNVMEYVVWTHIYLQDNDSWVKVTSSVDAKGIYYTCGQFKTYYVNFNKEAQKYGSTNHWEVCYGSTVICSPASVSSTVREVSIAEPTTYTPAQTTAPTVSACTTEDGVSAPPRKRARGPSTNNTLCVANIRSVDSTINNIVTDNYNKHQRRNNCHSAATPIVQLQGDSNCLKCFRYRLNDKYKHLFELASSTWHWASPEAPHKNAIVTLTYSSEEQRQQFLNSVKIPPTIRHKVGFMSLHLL
GST-tagged HPV-18 E2 (18E2), immobilized, sequence (P06790 whole entry): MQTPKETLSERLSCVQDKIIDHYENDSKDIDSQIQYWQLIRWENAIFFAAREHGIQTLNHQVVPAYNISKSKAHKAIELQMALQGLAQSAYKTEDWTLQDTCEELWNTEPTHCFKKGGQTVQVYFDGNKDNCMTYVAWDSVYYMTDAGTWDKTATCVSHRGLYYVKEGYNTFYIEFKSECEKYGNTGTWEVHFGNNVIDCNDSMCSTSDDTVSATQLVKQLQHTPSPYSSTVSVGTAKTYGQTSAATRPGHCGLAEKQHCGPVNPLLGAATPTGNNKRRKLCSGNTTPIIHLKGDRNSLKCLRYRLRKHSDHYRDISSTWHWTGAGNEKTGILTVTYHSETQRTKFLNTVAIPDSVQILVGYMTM
GST-tagged HPV-16 E2 (16E2), immobilized, sequence (P03120 whole entry): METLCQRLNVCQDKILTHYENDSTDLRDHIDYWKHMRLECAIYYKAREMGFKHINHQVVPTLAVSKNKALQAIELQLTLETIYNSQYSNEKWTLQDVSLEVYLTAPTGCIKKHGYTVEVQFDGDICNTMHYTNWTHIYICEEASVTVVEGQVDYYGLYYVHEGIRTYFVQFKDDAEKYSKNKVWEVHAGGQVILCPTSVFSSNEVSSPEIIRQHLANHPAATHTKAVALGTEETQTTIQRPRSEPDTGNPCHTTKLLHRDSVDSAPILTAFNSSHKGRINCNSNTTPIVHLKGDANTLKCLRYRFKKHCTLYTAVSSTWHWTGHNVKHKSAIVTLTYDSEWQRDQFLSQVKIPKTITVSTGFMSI

B1: Sf9-BID of BRD4 (fragment 6) (domain or fragment, human, UniProt O60885 524-579, looked up)
chain: QLAALSQPQQNKPKKKEKDKKEKKKEKHKRKEEVEENKKSKAKEPPPKKTKKNNSS
binds: [1] | [2] | [3] | [4]

B2: Bac-expressed FLAG-tagged BID of BRD4 (aa 524–579, fragment c) (domain or fragment, human, UniProt O60885 524-579, looked up)
chain: QLAALSQPQQNKPKKKEKDKKEKKKEKHKRKEEVEENKKSKAKEPPPKKTKKNNSS
binds: [1] | [2] | [3] | [4]

B3: GST-BID of BRD4 (domain or fragment, human, UniProt O60885 524-579, looked up)
chain: QLAALSQPQQNKPKKKEKDKKEKKKEKHKRKEEVEENKKSKAKEPPPKKTKKNNSS
binds: [5] | [6] | [7] | [8] | [9]

— paper PMC4981545 (Cell reports, 2016)
